The supplement of paper PMC11865577

Each sequence was assayed on TO-N3-2 (biotin conjugate) (assay: pull-down binding Z-score (relative to library population); higher = stronger binding). Settings: RNA library: Library-2.
How it was run: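 Biotin-conjugated small molecule (100 pmol) on streptavidin beads was incubated with 1 μg of heat-folded Cy5- or Cy3-end-labelled RNA library in phosphate/NaCl/KCl buffer at 25 °C for 60 min. Following three washes, RNA was eluted with hot SDS and hybridised at 55.5 °C for 20 h to a DNA barcode microarray. The binding value is a Z-score computed from the library mean and standard deviation, after subtraction of beads without compound and averaging of barcoded replicate probes with the highest and lowest excluded.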

**Q.** Which “pull-down binding Z-score” value does the source give for “UCUUAAGAGAGGUGAUAAAAGUGUAUAUUACACUAGUAAUCCUACCACAUUCCACCUAGAUGGUGAAGUUAUCACCUUUGACAAUCUUAAGA” here?
**A.** -0.559

**Q.** How did the “pull-down binding Z-score” value turn out when “UCUUCAGGUUGGACAGCUGGUGCUGCAGCUUAUUAUGUGGGUUAUCUUCAACCUAGGA [DMSMaPseq_invitro_SARS-CoV-2_Multi_66_ComplexLevel_1]” was run?
**A.** 0.0317

**Q.** Which “pull-down binding Z-score” value does the source give for “UCUUGCCGAAUACCAUAAUGAAUCUGGCUUGA [SHAPE_invivo_SARS-CoV-2_Motif_27]” here?
**A.** 0.0939

**Q.** How did the “pull-down binding Z-score” value turn out when “UCUUUAAGGAAGGAAGUUCUGUUGAAUUAAAACACUUCUUCUUUGCUCAGGA [DMSMaPseq_invitro_SARS-CoV-2_Motif_265]” was run?
**A.** -0.953

**Q.** How did the “pull-down binding Z-score” value turn out when “UCUUUAUUUGACAUGAGUAAAUUUCCCCUUAAAUUAAGGGGUACUGCUGUUAUGUCUUUAAAAGA [SHAPE_invitro_SARS-CoV-2_Motif_387]” was run?
**A.** -0.575

**Q.** “UCUUUCAUGGGA [DMSMaPseq_invitro_SARS-CoV-2_Motif_300]” was tested. Which “pull-down binding Z-score” value did it give?
**A.** -0.26

**Q.** With “UGAACCACAAAUCA [SHAPE_invitro_SARS-CoV-2_Motif_451]” as the sequence, how does the “pull-down binding Z-score” value read?
**A.** -0.906

**Q.** How did the “pull-down binding Z-score” value turn out when “UGAAGUAUUUUGUGAAAAUAGGACCUGAGCGCACCUGUUGUCUAUGUGAUAGACGUGCCACAUGCUUUUCCACUGCUUCA [SHAPE_invitro_SARS-CoV-2_Motif_342]” was run?
**A.** 0.0857

**Q.** For “UGAAUUAGACUCAUUCA [DMSMaPseq_invitro_SARS-CoV-2_Motif_447]”, which “pull-down binding Z-score” value is on record?
**A.** -0.825

**Q.** “UGACAUGACUCUUGAGGAAAUGUCA [IAV_invivo_NS1_NEP_8_Motif_7+IAV_invivo_NS1_NEP_8_Motif_7]” was tested. Which “pull-down binding Z-score” value did it give?
**A.** -1.21

**Q.** UGACAUUACACCAUGUUCUUUUGGUGGUGUCA was tested. Which “pull-down binding Z-score” value did it give?
**A.** -1.47

**Q.** With “UGACCAGUCUUCUUACAUCGUUGAUAGUGUUACAGUGAAGAAUGGUUCCAUCCAUCUUUACUUUGAUAAAGCUGGUCA” as the sequence, how does the “pull-down binding Z-score” value read?
**A.** -0.863

**Q.** How did the “pull-down binding Z-score” value turn out when “UGACGAUGCUGUUGUGUGUUUCAAUAGCACUUAUGCAUCUCA [SHAPE_invitro_SARS-CoV-2_Motif_289]” was run?
**A.** -0.71

**Q.** With “UGAGUACUGUAGGCACGGCACUUGUGAAAGAUCAGAAGCUGGUGUUUGUGUAUCUACUAGUGGUAGAUGGGUACUUA [DMSMaPseq_invitro_SARS-CoV-2_Multi_29_ComplexLevel_1]” as the sequence, how does the “pull-down binding Z-score” value read?
**A.** 0.628

**Q.** For “UGAGUGUGACAUACCCAUUGGUGCAGGUAUAUGCGCUAGUUAUCAGACUCA”, which “pull-down binding Z-score” value is on record?
**A.** 0.541

**Q.** With “UGAUAAAUUCA [SHAPE_invivo_SARS-CoV-2_Motif_325]” as the sequence, how does the “pull-down binding Z-score” value read?
**A.** -1.19

**Q.** “UGAUAGUCAACAAACUGUUGGUCAACAAGACGGCAGUGAGGACAAUCA” was tested. Which “pull-down binding Z-score” value did it give?
**A.** -0.167

**Q.** For “UGAUGCAGCCAUGCAACGUAAGUUGGAAAAGAUGGCUGAUCA”, which “pull-down binding Z-score” value is on record?
**A.** -0.974

**Q.** “UGAUGCGUAUUAUGACAUGGUUGGAUAUGGUUGAUACUAGUUUGUCUGGUUUUAAGCUAAAAGACUGUGUUAUGUAUGCAUCA” was tested. Which “pull-down binding Z-score” value did it give?
**A.** -0.569

**Q.** How did the “pull-down binding Z-score” value turn out when “UGAUGGUGUUCCAUUUGUAGUUUCAACUGGAUACCACUUCA [DMSMaPseq_invitro_SARS-CoV-2_Motif_261]” was run?
**A.** -0.82

**Q.** UGAUGUCACAGAUGUGACUCA was tested. Which “pull-down binding Z-score” value did it give?
**A.** -0.946

**Q.** With UGAUGUUUGUCA as the sequence, how does the “pull-down binding Z-score” value read?
**A.** -1.2

**Q.** “UGAUUUUUGUGGAAAGGGCUAUCAUCUUAUGUCCUUCCCUCAGUCA [SHAPE_invivo_SARS-CoV-2_Motif_462]” was tested. Which “pull-down binding Z-score” value did it give?
**A.** -0.49

**Q.** How did the “pull-down binding Z-score” value turn out when “UGCAACGAUACCGAUACAAGCCUCACUCCCUUUCGGAUGGCUUAUUGUUGGCGUUGCA” was run?
**A.** -0.000368

**Q.** How did the “pull-down binding Z-score” value turn out when “UGCAAGAGAUGGUUGUGUUCCCUUGAACAUAAUACCUCUUACA [DMSMaPseq_invitro_SARS-CoV-2_Motif_219]” was run?
**A.** -1.18

**Q.** Which “pull-down binding Z-score” value does the source give for UGCACUUGACCCUCUCUCAGAAACAAAGUGUA here?
**A.** -0.236

**Q.** For UGCAGAUUCAACUUUGAUUGGUGAUUGUGCA, which “pull-down binding Z-score” value is on record?
**A.** -0.565

**Q.** Which “pull-down binding Z-score” value does the source give for UGCAGAUUUGGAUGAUUUCUCCAAACAAUUGCA here?
**A.** -0.51

**Q.** With “UGCAGCAGAAACGCUCA [SHAPE_invitro_SARS-CoV-2_Motif_303]” as the sequence, how does the “pull-down binding Z-score” value read?
**A.** 0.533

**Q.** With “UGCAUUUCUUACCUAGAGUUUUUAGUGCA [DMSMaPseq_invitro_SARS-CoV-2_Motif_163]” as the sequence, how does the “pull-down binding Z-score” value read?
**A.** -1.24

**Q.** For “UGCCAUUUGUCAUGAUGGAAAAGCACACUUUCCUCGUGAAGGUGUCUUUGUUUCAAAUGGCA [SHAPE_invivo_SARS-CoV-2_Motif_465]”, which “pull-down binding Z-score” value is on record?
**A.** -0.463

**Q.** How did the “pull-down binding Z-score” value turn out when “UGCCGACUACUAUAGCAAAGAAUACUGUUAAGAGUGUCGGUA” was run?
**A.** -0.182

**Q.** With “UGCCUUCAAACUCAACAUUAAAUUGUUGGGUGUUGGUGGCA” as the sequence, how does the “pull-down binding Z-score” value read?
**A.** -1.07

**Q.** Which “pull-down binding Z-score” value does the source give for “UGCGAGAAAUGCUUGCA [SHAPE_invitro_SARS-CoV-2_Motif_85]” here?
**A.** -0.155

**Q.** How did the “pull-down binding Z-score” value turn out when UGCUAACUAAGGGCA was run?
**A.** -0.388

**Q.** “UGCUCAAGAAGCUUAUGAGCA [SHAPE_invivo_SARS-CoV-2_Motif_229]” was tested. Which “pull-down binding Z-score” value did it give?
**A.** 0.0417

**Q.** How did the “pull-down binding Z-score” value turn out when UGCUGAGGCUUCUAAGAAGCCUCGGCA was run?
**A.** -1.28

**Q.** For “UGCUGUUGUUAAAAUUUAUUGUCCAGCA [SHAPE_invitro_SARS-CoV-2_Motif_28]”, which “pull-down binding Z-score” value is on record?
**A.** -0.921

**Q.** Which “pull-down binding Z-score” value does the source give for UGCUUUCGUGGUA here?
**A.** -0.505

**Q.** Which “pull-down binding Z-score” value does the source give for “UGCUUUGGUGUAAAGAUGGCCAUGUAGAAACAUUUUACCCAAAAUUACAAUCUAGUCAAGCGUGGCAACCGGGUGUUGCUAUGCCUAAUCUUUACAAAAUGCA” here?
**A.** 0.252

**Q.** For UGGAAUUGCAAUGUCGAUAGAUAUCCUGCUAAUUCCA, which “pull-down binding Z-score” value is on record?
**A.** -0.0708

**Q.** “UGGAGGAAUACAAAUCCA [SHAPE_invitro_SARS-CoV-2_Motif_386]” was tested. Which “pull-down binding Z-score” value did it give?
**A.** -0.404

**Q.** “UGGAUGUAAUUAUCUUGGCAAACCACGCGAACAAAUAGAUGGUUAUGUCAUGCAUGCA” was tested. Which “pull-down binding Z-score” value did it give?
**A.** 0.157

**Q.** Which “pull-down binding Z-score” value does the source give for “UGGCAUGGAAGUCA [DMSMaPseq_invitro_SARS-CoV-2_Motif_525]” here?
**A.** -0.318

**Q.** For “UGGCAUUAAUGCUUCAGUUGUAAACAUUCAAAAAGAAAUUGACCGCCUCAAUGAGGUUGCCA”, which “pull-down binding Z-score” value is on record?
**A.** -0.663

**Q.** For UGGCCAUGGUACAUUUGGCUA, which “pull-down binding Z-score” value is on record?
**A.** -0.59

**Q.** How did the “pull-down binding Z-score” value turn out when “UGGCCCCGAUUUCAGCUAUGGUUA [SHAPE_invitro_SARS-CoV-2_Motif_146]” was run?
**A.** 0.341

**Q.** For “UGGCCGCAAAUUGCACAAUUUGCCCCCA [SHAPE_invitro_SARS-CoV-2_Motif_532]”, which “pull-down binding Z-score” value is on record?
**A.** -0.6

**Q.** For “UGGGAUAUUGCCCG [IAV_invivo_PB2_1_Motif_20+IAV_invivo_PB2_1_Motif_20]”, which “pull-down binding Z-score” value is on record?
**A.** -0.104

**Q.** With “UGGGAUUAUCCUA [DMSMaPseq_invitro_SARS-CoV-2_Motif_276]” as the sequence, how does the “pull-down binding Z-score” value read?
**A.** -0.609

**Q.** Which “pull-down binding Z-score” value does the source give for “UGGGCACACUUUCUUAUGAACAAUUUAAGAAAGGUGUUCA [SHAPE_invivo_SARS-CoV-2_Motif_116]” here?
**A.** -0.779

**Q.** For “UGGGGACCAGGAACUAAUCAGACAAGGAACUGAUUACAAACAUUGGCCGCAAAUUGCACAAUUUGCCCCCA”, which “pull-down binding Z-score” value is on record?
**A.** 0.83

**Q.** Which “pull-down binding Z-score” value does the source give for “UGGGGAGUUGAACCUA [IAV_invivo_PB2_1_Motif_19+IAV_invivo_PB2_1_Motif_19]” here?
**A.** -0.437

**Q.** Which “pull-down binding Z-score” value does the source give for “UGGGGAUCACAACUCA [IAV_invivo_PB1_2_Motif_11+IAV_invivo_PB1_2_Motif_11]” here?
**A.** -0.317

**Q.** With UGGGGCGCGAUCAAAACAACGUCGGCCCCA as the sequence, how does the “pull-down binding Z-score” value read?
**A.** -0.439

**Q.** “UGGGGUUGGGGUUGGGGUUGGGGUUGGGGUUGGGGU [G4_r(UGGGGU)6]” was tested. Which “pull-down binding Z-score” value did it give?
**A.** 4.95

**Q.** With “UGGGGUUGGGGUUGGGGUUGGGGUUGGGGUUGGGGUUGGGGUUGGGGU [G4_r(UGGGGU)8]” as the sequence, how does the “pull-down binding Z-score” value read?
**A.** 4.93

**Q.** Which “pull-down binding Z-score” value does the source give for UGGGUAGAAUUCGAUCUGUCUAUCCA here?
**A.** -0.327

**Q.** For “UGGGUUACAUCCUACACAGGCACCUACACACCUCAGUGUUGACACUAAAUUCAAAACUGAAGGUUUAUGUGUUGACAUACCUGGCAUACCUAAGGACAUGACCUA”, which “pull-down binding Z-score” value is on record?
**A.** 0.213

**Q.** UGGGUUAUCUUCAACCUA was tested. Which “pull-down binding Z-score” value did it give?
**A.** -0.937

**Q.** With “UGGGUUGGGUUGGGUUGGGUUGGGUUGGGU [G4_r(UGGGU)6]” as the sequence, how does the “pull-down binding Z-score” value read?
**A.** 5.72

**Q.** For “UGGGUUGGGUUGGGUUGGGUUGGGUUGGGUUGGGUUGGGU [G4_r(UGGGU)8]”, which “pull-down binding Z-score” value is on record?
**A.** 5.96

**Q.** Which “pull-down binding Z-score” value does the source give for “UGGUAAUGCUGCUAUCAGCGAUUAUGACUACUAUCGUUAUAAUCUACCA” here?
**A.** -0.119

**Q.** For “UGGUACUAUCUAUACAGAACUGGAACCA [SHAPE_invitro_SARS-CoV-2_Motif_233]”, which “pull-down binding Z-score” value is on record?
**A.** -0.456

**Q.** Which “pull-down binding Z-score” value does the source give for “UGGUACUGAAGAUGAUUACCA [SHAPE_invitro_SARS-CoV-2_Motif_57]” here?
**A.** 0.00913

**Q.** UGGUAUUCUUGCUA was tested. Which “pull-down binding Z-score” value did it give?
**A.** -0.632

**Q.** Which “pull-down binding Z-score” value does the source give for “UGGUGUUAGAAGGUCCUUUUAUGUCUAUGCUAAUGGAGGUAAAGGCUUUUGCAAACUA [SHAPE_invitro_SARS-CoV-2_Motif_149]” here?
**A.** -0.562

**Q.** Which “pull-down binding Z-score” value does the source give for UGGUUGGUUGGUUGGUUGGUUGGU [G4_r(UGGU)6] here?
**A.** 4.58
